Key:
Val-Gly [1] = target: Val-Gly
glutathione [2] = target: glutathione
Val-Gly [3] = target: Val-Gly; remark: listed apart in the source
glutathione [4] = target: glutathione; remark: listed apart in the source

## γ-Glutamyltranspeptidase from equine kidney, Sigma, Code G9270-100UN (enzyme)
Val-Gly [1]
  γ-Glu-Val-Gly (ppm) in the reaction mixture after reaction with γ-GTP, 4000 ppm Val-Gly added: 340 ppm
Glutathione [2]
  GSH (ppm) in the reaction mixture after reaction with γ-GTP, no Val-Gly added: 432 ppm

## Glutaminase Daiwa SD-C100S, Daiwa kasei (enzyme)
Val-Gly [3]
  γ-Glu-Val-Gly (ppm) in the reaction mixture after reaction with glutaminase, 4000 ppm Val-Gly added: 16 ppm
Glutathione [4]
  GSH (ppm) in the reaction mixture after reaction with glutaminase, no Val-Gly added: 3.1 ppm

## Gsh2p (glutathione synthetase) of Saccharomyces cerevisiae (enzyme)
γ-Glu-Val
  γ-EVG, µg 1^-1 OD600^-1, formed in cells cultured with 100 ppm γ-Glu-Val, strain S288C ura3Δ227/YEp24-PTDH3-GSH2 (µg 1^-1 OD600^-1): 705

B1: Hgt1p of Saccharomyces cerevisiae (protein)
chain: MSTIYRESDSLESEPSPTPTTIPIQINMEEEKKDAFVKNIDEDVNNLTATTDEEDRDPESQKFDRHSIQEEGLVWKGDPTYLPNSPYPEVRSAVSIEDDPTIRLNHWRTWFLTTVFVVVFAGVNQFFSLRYPSLEINFLVAQVVCYPIGRILALLPDWKCSKVPFFDLNPGPFTKKEHAVVTIAVALTSSTAYAMYILNAQGSFYNMKLNVGYQFLLVWTSQMIGYGAAGLTRRWVVNPASSIWPQTLISVSLFDSLHSRKVEKTVANGWTMPRYRFFLIVLIGSFIWYWVPGFLFTGLSYFNVILWGSKTRHNFIANTIFGTQSGLGALPITFDYTQVSQAMSGSVFATPFYVSANTYASVLIFFVIVLPCLYFTNTWYAKYMPVISGSTYDNTQNKYNVTKILNEDYSINLEKYKEYSPVFVPFSYLLSYALNFAAVIAVFVHCILYHGKDIVAKFKDRKNGGTDIHMRIYSKNYKDCPDWWYLLLQIVMIGLGFVAVCCFDTKFPAWAFVIAILISLVNFIPQGILEAMTNQHVGLNIITELICGYMLPLRPMANLLFKLYGFIVMRQGLNLSRDLKLAMYMKVSPRLIFAVQIYATIISGMVNVGVQEWMMHNIDGLCTTDQPNGFTCANGRTVFNASIIWSLPKYLFSSGRIYNPLMWFFLIGLLFPLAVYAVQWKFPKFKFAKHIHTPVFFTGPGNIPPSTPYNYSLFFAMSFCLNLIRKRWRAWFNKYNFVMGAGVEAGVAISVVIIFLCVQYPGGKLSWWGNNVWKRTYDNDYKKFYTLKKGETFGYDKWW
γ-Glu-nVal-Gly
  intracellular content of γ-Glu-nVal-Gly on the dry weight cell, 100 ppm added: 2.84%
